Data published in patent publication US10766960 (dated 2020).
Positions count from the first letter of the chain named. Like-named read-outs stand apart in the source and are kept apart here.

Key:
Assay in all cases: SPR
FcgRIIIa F [1] = target: T1, FcgRIIIa F (human, UniProt P08637)
FcgRIIIa F [2] = target: T1, FcgRIIIa F; remark: listed apart in the source
FcgRIIIa F [3] = target: T1, FcgRIIIa F; remark: listed apart in the source
FcgRIIIa V [4] = target: T2, FcgRIIIa V (human, UniProt P08637)
T2 sequence (P08637 17-208 F176V): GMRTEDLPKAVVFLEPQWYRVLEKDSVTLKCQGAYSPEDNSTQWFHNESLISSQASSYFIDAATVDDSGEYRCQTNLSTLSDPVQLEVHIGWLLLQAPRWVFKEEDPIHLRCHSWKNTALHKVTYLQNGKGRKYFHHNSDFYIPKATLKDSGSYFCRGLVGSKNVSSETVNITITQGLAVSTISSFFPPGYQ

FcgRIIb [5] = target: T3, FcgRIIb (human, UniProt P31994)
T3 chain: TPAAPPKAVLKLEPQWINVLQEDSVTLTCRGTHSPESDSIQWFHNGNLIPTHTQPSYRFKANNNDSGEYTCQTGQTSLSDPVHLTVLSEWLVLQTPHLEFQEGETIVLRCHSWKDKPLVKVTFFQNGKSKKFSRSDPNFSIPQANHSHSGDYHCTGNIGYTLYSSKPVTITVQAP

FcgRIIa H [6] = target: T4, FcgRIIa H (human, UniProt P12318)
T4 chain: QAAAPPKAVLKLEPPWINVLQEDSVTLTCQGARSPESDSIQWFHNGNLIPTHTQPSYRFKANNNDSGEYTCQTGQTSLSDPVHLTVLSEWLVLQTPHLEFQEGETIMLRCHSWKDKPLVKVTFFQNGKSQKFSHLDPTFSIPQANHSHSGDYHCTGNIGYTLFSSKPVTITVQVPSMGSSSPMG

FcgRIIb [7] = target: T3, FcgRIIb
FcgRIa [8] = target: T5, FcgRIa (human, UniProt P12314)
T5 chain: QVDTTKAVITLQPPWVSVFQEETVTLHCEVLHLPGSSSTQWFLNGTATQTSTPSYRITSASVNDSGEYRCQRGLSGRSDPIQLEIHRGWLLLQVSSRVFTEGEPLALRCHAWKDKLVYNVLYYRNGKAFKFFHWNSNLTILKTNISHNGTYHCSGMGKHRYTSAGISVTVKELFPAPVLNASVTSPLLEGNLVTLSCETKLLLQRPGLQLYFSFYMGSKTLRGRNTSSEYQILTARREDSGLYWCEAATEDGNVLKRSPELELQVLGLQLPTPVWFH

FcgRIIa R [9] = target: T6, FcgRIIa R (human, UniProt P12318)
T6 chain: T4 chain with H134R

FcgRIIIa F [10] = target: T1, FcgRIIIa F; remark: listed apart in the source
FcgRIIa H [11] = target: T4, FcgRIIa H
FcgRIIa R [12] = target: T6, FcgRIIa R
FcgRIIIa V [13] = target: T2, FcgRIIIa V; remark: listed apart in the source
FcgRIIIa F [14] = target: T1, FcgRIIIa F; remark: listed apart in the source
FcgRIIb [15] = target: T3, FcgRIIb
FcgRIa [16] = target: T5, FcgRIa
FcgRIIb [17] = target: T3, FcgRIIb
FcgRIIIa F [18] = target: T1, FcgRIIIa F; remark: listed apart in the source

T1 sequence (P08637 17-208): as the sequence (P08637 17-208 F176V) above, with V160F counted along it

B1: GpH7-TA7/GpH7-TA58/GpL16-k0 (antibody)
chain 1: QVQLVQSGAEVKKPGASVTVSCKASGYTFTDYEMHWIRQPPGEGLEWIGAIDPKTGDTAYSESFQDRVTLTADKSTSTAYMELSSLTSEDTAVYYCTRFYSYTYWGQGTLVTVSSASTKGPSVFPLAPSSKSTSGGTAALGCLVKDYFPEPVTVSWNSGALTSGVHTFPAVLQSSGLYSLSSVVTVPSSSLGTQTYICNVNHKPSNTKVDKKVEPKSCDKTHTCPPCPAPEYLWGPSVFLFPPKPKDTLMISRTPEVTCVVVDVSHEDPEVKFNWYVDGVEVHNAKTKPREEQYNATYRVVSVLTVLHQDWLNGKEYKCKVSNKALPAPIEKTISKAKGQPREPQVYTLPPSRKELTKNQVSLTCLVKGFYPSDIAVEWESNGQPENNYKTTPPVLDSDGSFFLYSKLTVDKSRWQQGNVFSCSVMHEALHNRYTQKSLSLSP
chain 2: B1 chain 1 with Y232L, W234G, S237D, Y294W, A296S, A328L, I330E, K354D, R433H, K437E
chain 3: DIVMTQSPLSLPVTPGEPASISCQASESLVHSNRNTYLHWYLQKPGQSPQLLIYKVSNRFSGVPDRFSGSGSGTDFTLKISRVEAEDVGVYYCSQNTHVPPTFGQGTKVEIERTVAAPSVFIFPPSDEQLKSGTASVVCLLNNFYPREAKVQWKVDNALQSGNSQESVTEQDSKDSTYSLSSTLTLSKADYEKHKVYACEVTHQGLSSPVTKSFNRGEC
- Kd (FcgRIIIa F [1]): 3.3 nM

B2: GpH7-TA7/GpH7-TA50/GpL16-k0 (antibody)
chain 1: B1 chain 1
chain 2: B1 chain 1 with Y232L, W234G, S237D, A296S, A328L, I330E, K332G, K354D, R433H, K437E
chain 3: B1 chain 3
- Kd (FcgRIIIa F [2]): 3.4 nM

B3: H240-G1d/L73-k0 (antibody)
chain 1: not shown
chain 2: DIQMTQSPSSLSASVGDRVTITCRASQDIHKYIAWYQQKPGQAPRLLIQYTSTLQPGVPSRFSGSGSGTDYTFTISSLQPEDIATYYCLQYEQLRTFGGGTKVEIKRTVAAPSVFIFPPSDEQLKSGTASVVCLLNNFYPREAKVQWKVDNALQSGNSQESVTEQDSKDSTYSLSSTLTLSKADYEKHKVYACEVTHQGLSSPVTKSFNRGEC
- Kd (FcgRIIIa F [3]): 1400 nM
- Kd (FcgRIIIa V [4]): 310 nM
- Kd (FcgRIIb [5]): 6 µM
- Kd (FcgRIIa H [6]): 660 nM
- Kd (FcgRIIb [7]): 6.1 µM
- Kd (FcgRIa [8]): 0.23 nM
- Kd (FcgRIIa R [9]): 880 nM

B4: H240-afucosyl_G1d/L73-k0 (antibody)
chain 1: not shown
chain 2: B3 chain 2
- Kd (FcgRIIIa F [3]): 78 nM
- Kd (FcgRIIIa V [4]): 6.9 nM
- Kd (FcgRIIb [5]): 2.6 µM
- Kd (FcgRIIIa F [10]): 79 nM
- Kd (FcgRIIa H [6]): 780 nM
- Kd (FcgRIa [8]): 0.43 nM
- Kd (FcgRIIa R [9]): 490 nM

B5: H240-Kn033/H240-Hl033/L73-k0 (antibody)
chain 1: not shown
chain 2: not shown
chain 3: B3 chain 2
- Kd (FcgRIIIa F [3]): 2600 nM
- Kd (FcgRIIa H [11]): 520 nM
- Kd (FcgRIIIa V [4]): 390 nM
- Kd (FcgRIIb [5]): 4.1 µM
- Kd (FcgRIIa R [12]): 740 nM
- Kd (FcgRIIIa V [13]): 48 nM
- Kd (FcgRIIIa F [14]): 290 nM
- Kd (FcgRIIb [15]): 3.3 µM
- Kd (FcgRIa [16]): 0.095 nM
- Kd (FcgRIIa H [6]): 930 nM
- Kd (FcgRIIb [17]): 4.2 µM
- Kd (FcgRIa [8]): 0.25 nM
- Kd (FcgRIIa R [9]): 1000 nM

B6: GpH7-A44/GpH7-B3/GpL16-k0 (antibody)
chain 1: B1 chain 1 with Y232L, W234G, A296S, I330E
chain 2: not shown
chain 3: B1 chain 3
- Kd (FcgRIIIa F [18]): 370 nM

B7: GpH7-TA40/GpH7-B78/GpL16-k0 (antibody)
chain 1: B1 chain 1 with K332G
chain 2: B1 chain 1 with Y232L, W234G, S237D, A296S, A328L, I330E, K354D, R433H, K437E
chain 3: B1 chain 3
- Kd (FcgRIIIa F [2]): 7.5 nM

B8: GpH7-A5/GpH7-B80/GpL16-k0 (antibody)
chain 1: not shown
chain 2: not shown
chain 3: B1 chain 3
- Kd (FcgRIIIa F [18]): 470 nM

B9: GpH7-A44/GpH7-B80/GpL16-k0 (antibody)
chain 1: B1 chain 1 with Y232L, W234G, A296S, I330E
chain 2: not shown
chain 3: B1 chain 3
- Kd (FcgRIIIa F [18]): 230 nM

B10: GpH7-TA52/GpH7-B78/GpL16-k0 (antibody)
chain 1: B1 chain 1 with Y294W
chain 2: B1 chain 1 with Y232L, W234G, S237D, A296S, A328L, I330E, K354D, R433H, K437E
chain 3: B1 chain 3
- Kd (FcgRIIIa F [1]): 2.3 nM
